According to the supplement of paper PMC12042874:
± gives the uncertainty stated by the source.

test: amyloid nucleation score (Sup35N fusion, yeast selection) (log enrichment); library NNK2; higher = more nucleation; inactive = no reads after selection
Method in brief: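 The nucleation score is a DiMSum log enrichment of output over input reads, centred on the mode score of non-aggregating sequences. Sequences under 100 input reads were excluded, and reads came from Illumina sequencing of plasmid inserts. Psi-negative yeast expressing Sup35N fused to peptides of 20 random codons were induced with 100 μM copper sulfate for 24 hours and grown 7 days at 30°C on medium lacking adenine and uracil. Random libraries had three technical output replicates.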

Row | Substance | amyloid nucleation score
1 | YACFDCIIIQAWKFSIGTGL | 3.7 ± 0.051
2 | YAESSNDARSSFISKVSAFI | inactive
3 | YAFIILISCFLTDDSTIGVY | -0.24 ± 0.55
4 | YAIKMGFASQVSVEFRWLYK | -0.244 ± 0.28
5 | YAKNYSILQACQLDHWEFGV | 4.04 ± 0.056
6 | YARTKDYVLVCLQGICAGVN | -0.14 ± 1
7 | YAVENTLYHVRVVTLQSISW | 0.153 ± 0.79
8 | YCDIKIEDLNLGGETGSDRR | inactive
9 | YCDVWGRRCCDANYMERTAS | 1.35 ± 0.38
10 | YCNFDRIVYWPLGAAALPFR | 0.065 ± 1.1
11 | YCVSNWASNFSLLLYNGNMY | inactive
12 | YDYEEFRSVLKWIAGRIYVD | -1.27 ± 0.48
13 | YDYYLMVISFRFVNFYNGVG | inactive
14 | YEFCSTRQRSELGGK | 5.24 ± 0.069
15 | YEHRNGLWSMKKRLIG | 0.253 ± 0.31
16 | YEHVIGVWYLGCQGGWVGDH | 0.354 ± 0.29
17 | YEISSLRSFRSVLNWYMSGS | 4.6 ± 0.052
18 | YERVRRSVYSSMFFSLFNTR | -0.357 ± 1.1
19 | YESGVSCFFVYVMNTYHIWG | 5.17 ± 0.097
20 | YFDSDRS | -0.502 ± 0.76
21 | YFEPSSPGVIV | inactive
22 | YFFTLKV | 0.497 ± 0.46

Row | Substance | amyloid nucleation score
23 | YFGMISERFRFPVYFQNSPR | -1.14 ± 1.1
24 | YFGVEKDEFPPLLGMHMF | -1.59 ± 0.75
25 | YFIGGGLRVMSRWWMCALMD | 3.24 ± 0.086
26 | YFILKFVQTGGNS | 4.12 ± 0.041
27 | YFILVLVESLHPSGVPAFWC | -0.103 ± 0.65
28 | YFISDEIVQSNIFSLIGWFC | 8.556 ± 0.042
29 | YFLLVVCGWHGFIIESLLRF | inactive
30 | YFNGL | inactive
31 | YFSSTYLRQGIFWCFRMSRL | -0.43 ± 1.1
32 | YFWGMFEYW | inactive
33 | YFYIF | 2.03 ± 0.12
34 | YFYLFYCEIRVPTELYLNMP | 3.15 ± 0.06
35 | YGALYTVRMEN | -0.482 ± 0.49
36 | YGFPDF | -1.12 ± 1.1
37 | YGFVDSHRTH | 0.092 ± 0.61
38 | YGKKCLSKAKKSTKISLPG | 0.016 ± 1.1
39 | YGLAFTEDATFFKVCTY | -0.211 ± 0.8
40 | YGLIFNLASFMLRGPRTSFS | -2.15 ± 0.64
41 | YGPGFILSQMMNWLWYSCSS | -0.765 ± 0.78
42 | YGQLRHFVRTGLDGGTHRGL | -0.174 ± 0.76
43 | YGRCNGLSGCQRGSCSREGG | 0.483 ± 0.46
44 | YGRRGELN | -0.422 ± 1.1

Row | Substance | amyloid nucleation score
45 | YGVDLSRRMV | 0.043 ± 0.46
46 | YGVFYCSMPYCTSWGIHCVL | 7.19 ± 0.077
47 | YHFTLGCNSEGCR | -0.668 ± 0.24
48 | YHRYAAS | -0.077 ± 0.39
49 | YHVRIGSGRAVSLHV | 0.382 ± 0.5
50 | YHVVAWSWTRSYV | 0.561 ± 0.4
51 | YHWWDLLLTLREPVRWRIQP | 1.55 ± 0.23
52 | YICRGASGIKSQLREWDVAH | -0.269 ± 0.74
53 | YIDALSIVFCVAVIGHTPTW | 8.753 ± 0.039
54 | YIGLSRATWM | -1.75 ± 0.62
55 | YIGLVSS | -0.052 ± 0.65
56 | YIGSVIIWRRKVSRFHLGEA | 0.102 ± 0.79
57 | YIHVVNTVSAVGVRRGSVGT | 0.031 ± 0.76
58 | YIKFDGSTWKGVVFYYEMWE | -1.12 ± 0.76
59 | YINHSHVRGIVRIYNVQV | inactive
60 | YIPIYMGWTGRNRTVMH | inactive
61 | YITRFLPQVTVWQRVFCCSY | 7.454 ± 0.039
62 | YITVSSESAWHYTDQATFDA | -0.129 ± 1.1
63 | YIVDGVGCNCHTGSIVEMSL | -0.618 ± 0.32
64 | YKETFGIA | -1.36 ± 0.49
65 | YKFLLFFYVDTSYVMLFSGF | -0.887 ± 1.1
66 | YKFSPIHNSRCLNSLHWPKA | 0.439 ± 0.74

Row | Substance | amyloid nucleation score
67 | YKSYSNPVLHHYSSLIPGPN | -0.001 ± 0.41
68 | YKVNWG | 0.854 ± 0.47
69 | YKVQTLDAPNYRFIGVFVRS | -0.711 ± 1.1
70 | YKWWCSW | -0.62 ± 0.76
71 | YLACFTARL | 3.91 ± 0.049
72 | YLFFKFWNAVCDLIHNTNLY | inactive
73 | YLGMLYFLVASHASDFATYW | 4.16 ± 0.051
74 | YLGVSSCLMSSSGRSLASTL | 4.39 ± 0.09
75 | YLHLSQTQWLGLIFNRRSFD | 3.62 ± 0.068
76 | YLKMALVMIMYVITYRSTVG | 1.65 ± 0.31
77 | YLLFEWHYRHTYRCLVRVGA | -0.166 ± 0.76
78 | YLLLNYQACTMLDWNWVWVW | 5.31 ± 0.071
79 | YLMSFGPWGNYYFRSCKLWL | 6.42 ± 0.082
80 | YLNVNNSQDNESAYVFDKVV | 0.058 ± 0.74
81 | YLPPNKNWFFVWVDFSSWVF | -0.627 ± 0.61
82 | YLRTCI | -0.084 ± 0.49
83 | YLRTFAKYWNPNARQLSIMR | inactive
84 | YLSDNHYWCWSYESF | -0.725 ± 0.41
85 | YLWDRSATRS | 0.605 ± 0.29
86 | YMADSPLELDSSMTDYLCPV | 4.18 ± 0.069
